assay: soluble on expression in E. coli; label from the status in PepcDB or PDB records

Sequence | soluble on expression in E. coli
MTSFSLIATAAMGLESVVAEEVRRLGYECQVENGKVTFEGDALAICRANLWLRTADRVKLKVGEFRATTFEELFEQTKALPWADYLPKDAEFPVIGKSVKSTLFSVSDCQAIVKKAVVESLKARYHLSWFPETGPLYRIEVALHKDIATLTIDTSGAGLHKRGYRARQGEAPLRETLAAALVLLTNWTPDRPFVDPFCGSGTIAIEAALIGQNIAPGFNRDFVSEQWPWIGESVWEEARQEAEQMARYDQPLDICGIDLDPHMVEIAKMNAAEAGLSDLISFREGRAEQFRTDAQYGVIVGNPPYGERLGEQREVEALYRAIGRAFAALDTWSVYILTAHRGFETHYGRPATKRRKLFNGFIETHYYQYWGPRPPREARS | not soluble
MGSDKIHHHHHHMICEFSESVLDGIADALVDRGYICVDNLFEPEVVVRLRDKVFTKADETFKPASIGRGQEQHRNTDIRRDSIRWLEPQCAVDNQYLSLMESLKNGLNRRLFMGLFDYESHYALYRPGAFYKKHVDALKGSQNRILTTVFFMNPEWQPDHGGVLKLYEEDDSLIEELAPLMGRLVIFLSERFPHEVMPTTVDRASIAGWFRVAGSQHGF | not soluble
MDTSKIVGEKIKALREDKSISIEELAQRSGLAIEQIERIENNIDIPSLAPLIKIARVLGVRLGTFLDDQDEIGPVVCRKKEAKDAISFSNNAIHSRKHMEYHSLSKSKADRHMEPFIIDVMPTEDSDFVLSSHEGEEFIMVMEGVMEISYGKNTYLLEEGDSIYYDSIVPHHVHAYEGQAAKILAVVYTPI | not soluble
MSLGNKSEAYEQYIQQIKEENGINNFFDRYPYLLKQINREVRLIEESYSLLFDRFLKDLSELRSCFNITEPLSNVEFSLGDSHSQKQTVVKIEFKGKSIYYKPKSYDSYNILLELISLLKSNNIPSFSLPESLIKADYCWQLGVDYINSNNDEVKRIYFKYGVLAAFSEIFSITDLHMENVIVSGGDLYLIDVETFFQRKLNVQTNNFEGITVDTYQRIYETSLSNGLFPVQFEKNSAPNISGISGKGGKRKKGKYELINKNRGDMKLVKTDYFQEDSYNIPTLNEKMVEPLDYANEVIAGFRECYTFLMTQRAKVKKILYGFPKLRTRAIFRNTSDYGKFLQASTNPKYLFSEKKRENLFSILYESKHIEQFIVDSEIKDLMNGDIPYFSMDPNGNVYNSLGTVIGNLGKTTSLFDNIATLNDERMKFTCELIGIVLKKPIKHWERKDGKSYYFPSISSKQSFNEEILRQREGHHHHHH | not soluble
ATKEFIYLVRGMTPEQGQAALDLKVPGVYGIEEFRRFYPAGDVTAHMVGFTDLDDHGREGVELAYDDWLAGVPGKRQVIKDRRGRLIKDVQVTKNAKAGKTLALSID | not soluble
MLYNMDERFEIKDIVAREVIDSRGNPTVEVEVITKGNGYGSAIVPSGASTGTHEALELRDKEKRFGGKGVLMAVENVNSIIRPEILGYDARMQREIDTIMIELDGTPNKSRLGANAILAVSLAVAKAAAATAKIPLYKYLGGFNSYVMPVPMMNVINGGKHAGNDLDLQEFMIMPVGATSISEAVRMGSEVYHVLKNVILEKYGKNAVNVGDEGGFAPPLKTSREALDLLTESVKKAGYEDEVVFALDAAASEFYKDGYYYVEGKKLTREELLDYYKALVDEYPIVSIEDPFHEEDFEGFAMITKELDIQIVGDDLFVTNVERLRKGIEMKAANALLLKVNQIGTLSEAVDAAQLAFRNGYGVVVSHRSGETEDTTIADLSVALNSGQIKTGAPARGERTAKYNQLIRIEQELGLSKYAGRNFRCPF | soluble
FQGAMDPEFSMKIGIIGAMEEEVTLLRDKIENRQTISLGGCEIYTGQLNGTEVALLKSGIGKVAAALGATLLLEHCKPDVIINTGSAGGLAPTLKVGDIVVSDEARYHDADVTAFGYEYGQLPGCPAGFKADDKLIAAAEACIAELNLNAVRGLIVSGDAFINGSVGLAKIRHNFPQAIAVEMEATAIAHVCHNFNVPFVVVRAISDVADQQSHLSFDEFLAVAAKQSSLMVESLVQKLAHG | soluble
MGHHHHHHSHMAAAFRKAAKSRQREHRERSQPGFRKHLGLLEKKKDYKLRADDYRKKQEYLKALRKKALEKNPDEFYYKMTRVKLQDGVHIIKETKEEVTPEQLKLMRTQDVKYIEMKRVAEAKKIERLKSELHLLDFQGKQQNKHVFFFDTKKEVEQFDVATHLQTAPELVDRVFNRPRIETLQKEKVKGVTNQTGLKRIAKERQKQYNCLTQRIEREKKLFVIAQKIQTRKDLMDKTQKVKVKKETVNSPAIYKFQSRRKR | soluble

Source: the DeepSol protein solubility set
